Assay results as given in PMC11615311 (Nature Communications, 2024).

Assays:
[1] = biological target: UAF1-USP1 complex (purified) (UniProt Q8TAF3 1-677; O94782 1-785); assay: pull-down
[2] = biological target: BAZ1B-SMARCA5 complex (purified) (human | , UniProt Q9UIG0 1-1483; O60264 1-1052); assay: pull-down
BAZ1B-SMARCA5 complex (purified), sequence (Q9UIG0 whole entry, chain 1 of 2): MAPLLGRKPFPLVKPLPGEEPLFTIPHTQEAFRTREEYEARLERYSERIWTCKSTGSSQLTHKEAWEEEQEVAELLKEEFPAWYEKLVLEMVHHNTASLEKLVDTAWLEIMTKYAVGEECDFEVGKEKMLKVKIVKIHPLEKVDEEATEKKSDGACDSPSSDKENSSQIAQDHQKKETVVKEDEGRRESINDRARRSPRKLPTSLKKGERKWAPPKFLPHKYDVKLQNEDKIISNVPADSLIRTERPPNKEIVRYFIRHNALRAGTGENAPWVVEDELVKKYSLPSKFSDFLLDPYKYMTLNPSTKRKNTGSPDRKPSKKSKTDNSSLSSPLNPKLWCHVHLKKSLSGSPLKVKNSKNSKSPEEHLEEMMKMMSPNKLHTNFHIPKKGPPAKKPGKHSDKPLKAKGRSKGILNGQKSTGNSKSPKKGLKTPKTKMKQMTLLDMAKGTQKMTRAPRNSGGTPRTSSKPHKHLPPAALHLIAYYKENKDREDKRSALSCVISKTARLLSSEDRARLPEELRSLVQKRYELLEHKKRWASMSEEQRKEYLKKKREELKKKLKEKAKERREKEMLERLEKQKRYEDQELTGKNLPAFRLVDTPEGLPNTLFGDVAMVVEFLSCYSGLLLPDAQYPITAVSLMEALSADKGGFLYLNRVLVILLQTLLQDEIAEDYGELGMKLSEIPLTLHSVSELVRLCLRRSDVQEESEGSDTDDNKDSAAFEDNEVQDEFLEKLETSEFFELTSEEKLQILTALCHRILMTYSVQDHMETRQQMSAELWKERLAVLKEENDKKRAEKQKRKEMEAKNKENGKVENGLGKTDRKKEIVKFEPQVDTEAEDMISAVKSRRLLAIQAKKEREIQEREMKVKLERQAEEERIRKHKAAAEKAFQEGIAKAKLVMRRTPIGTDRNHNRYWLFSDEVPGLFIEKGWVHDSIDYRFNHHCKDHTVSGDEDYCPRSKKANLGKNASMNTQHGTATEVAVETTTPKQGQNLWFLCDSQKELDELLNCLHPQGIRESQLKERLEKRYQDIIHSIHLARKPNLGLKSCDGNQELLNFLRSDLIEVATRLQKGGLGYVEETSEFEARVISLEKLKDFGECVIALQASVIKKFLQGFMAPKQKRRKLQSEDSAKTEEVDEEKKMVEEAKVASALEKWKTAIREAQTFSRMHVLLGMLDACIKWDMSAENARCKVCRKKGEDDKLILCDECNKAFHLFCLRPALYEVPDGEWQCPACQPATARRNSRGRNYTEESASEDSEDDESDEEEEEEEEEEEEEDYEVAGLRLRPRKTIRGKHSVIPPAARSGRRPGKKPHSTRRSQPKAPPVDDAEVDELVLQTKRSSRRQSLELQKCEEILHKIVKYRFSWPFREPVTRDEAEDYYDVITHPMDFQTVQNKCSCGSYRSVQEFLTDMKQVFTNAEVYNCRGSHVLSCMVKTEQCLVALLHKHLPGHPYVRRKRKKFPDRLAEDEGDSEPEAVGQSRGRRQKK
BAZ1B-SMARCA5 complex (purified), sequence (O60264 whole entry, chain 2 of 2): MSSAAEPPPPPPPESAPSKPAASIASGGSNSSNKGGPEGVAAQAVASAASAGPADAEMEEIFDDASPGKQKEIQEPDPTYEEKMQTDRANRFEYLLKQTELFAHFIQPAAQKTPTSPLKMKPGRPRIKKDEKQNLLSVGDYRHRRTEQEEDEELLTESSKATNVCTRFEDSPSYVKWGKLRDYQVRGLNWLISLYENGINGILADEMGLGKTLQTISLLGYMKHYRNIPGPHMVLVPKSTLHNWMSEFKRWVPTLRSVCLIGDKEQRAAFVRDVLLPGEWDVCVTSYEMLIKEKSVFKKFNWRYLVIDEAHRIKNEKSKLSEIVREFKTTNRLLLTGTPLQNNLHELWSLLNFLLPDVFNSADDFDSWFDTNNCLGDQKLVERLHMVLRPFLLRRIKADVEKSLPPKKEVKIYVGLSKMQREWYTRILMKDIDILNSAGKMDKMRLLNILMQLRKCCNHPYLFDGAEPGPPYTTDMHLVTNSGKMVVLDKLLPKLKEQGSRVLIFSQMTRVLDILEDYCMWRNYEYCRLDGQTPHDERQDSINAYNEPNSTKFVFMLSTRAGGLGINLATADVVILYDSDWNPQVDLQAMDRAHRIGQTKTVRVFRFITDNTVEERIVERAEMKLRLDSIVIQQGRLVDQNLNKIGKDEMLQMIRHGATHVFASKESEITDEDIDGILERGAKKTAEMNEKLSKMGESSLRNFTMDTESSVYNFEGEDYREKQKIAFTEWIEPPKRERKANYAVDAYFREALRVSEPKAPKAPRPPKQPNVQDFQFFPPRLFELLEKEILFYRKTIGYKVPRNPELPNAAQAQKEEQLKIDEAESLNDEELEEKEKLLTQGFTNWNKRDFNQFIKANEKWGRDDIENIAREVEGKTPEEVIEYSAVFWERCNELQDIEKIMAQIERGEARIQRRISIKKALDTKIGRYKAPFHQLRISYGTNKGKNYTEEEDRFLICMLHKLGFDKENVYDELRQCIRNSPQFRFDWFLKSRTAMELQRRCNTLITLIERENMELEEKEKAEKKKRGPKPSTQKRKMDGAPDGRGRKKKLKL

UAF1-USP1 complex (purified), sequence (Q8TAF3 whole entry, chain 1 of 2): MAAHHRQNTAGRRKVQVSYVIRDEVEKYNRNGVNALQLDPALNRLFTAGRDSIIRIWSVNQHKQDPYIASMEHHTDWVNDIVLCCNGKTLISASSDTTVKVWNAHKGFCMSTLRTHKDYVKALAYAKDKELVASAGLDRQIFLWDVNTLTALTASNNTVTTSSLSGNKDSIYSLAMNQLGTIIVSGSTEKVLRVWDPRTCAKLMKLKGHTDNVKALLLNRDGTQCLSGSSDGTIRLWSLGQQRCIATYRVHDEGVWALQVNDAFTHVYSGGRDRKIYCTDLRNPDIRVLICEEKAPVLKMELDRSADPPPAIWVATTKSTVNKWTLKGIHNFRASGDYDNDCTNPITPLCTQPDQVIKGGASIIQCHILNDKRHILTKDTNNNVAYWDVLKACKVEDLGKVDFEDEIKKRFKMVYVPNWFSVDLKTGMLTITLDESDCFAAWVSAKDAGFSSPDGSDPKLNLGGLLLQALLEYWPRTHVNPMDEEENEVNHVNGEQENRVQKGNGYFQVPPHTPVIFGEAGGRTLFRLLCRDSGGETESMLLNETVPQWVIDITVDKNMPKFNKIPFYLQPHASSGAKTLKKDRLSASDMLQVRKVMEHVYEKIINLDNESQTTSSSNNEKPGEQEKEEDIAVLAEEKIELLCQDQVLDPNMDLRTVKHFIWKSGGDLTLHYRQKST
UAF1-USP1 complex (purified), sequence (O94782 whole entry, chain 2 of 2): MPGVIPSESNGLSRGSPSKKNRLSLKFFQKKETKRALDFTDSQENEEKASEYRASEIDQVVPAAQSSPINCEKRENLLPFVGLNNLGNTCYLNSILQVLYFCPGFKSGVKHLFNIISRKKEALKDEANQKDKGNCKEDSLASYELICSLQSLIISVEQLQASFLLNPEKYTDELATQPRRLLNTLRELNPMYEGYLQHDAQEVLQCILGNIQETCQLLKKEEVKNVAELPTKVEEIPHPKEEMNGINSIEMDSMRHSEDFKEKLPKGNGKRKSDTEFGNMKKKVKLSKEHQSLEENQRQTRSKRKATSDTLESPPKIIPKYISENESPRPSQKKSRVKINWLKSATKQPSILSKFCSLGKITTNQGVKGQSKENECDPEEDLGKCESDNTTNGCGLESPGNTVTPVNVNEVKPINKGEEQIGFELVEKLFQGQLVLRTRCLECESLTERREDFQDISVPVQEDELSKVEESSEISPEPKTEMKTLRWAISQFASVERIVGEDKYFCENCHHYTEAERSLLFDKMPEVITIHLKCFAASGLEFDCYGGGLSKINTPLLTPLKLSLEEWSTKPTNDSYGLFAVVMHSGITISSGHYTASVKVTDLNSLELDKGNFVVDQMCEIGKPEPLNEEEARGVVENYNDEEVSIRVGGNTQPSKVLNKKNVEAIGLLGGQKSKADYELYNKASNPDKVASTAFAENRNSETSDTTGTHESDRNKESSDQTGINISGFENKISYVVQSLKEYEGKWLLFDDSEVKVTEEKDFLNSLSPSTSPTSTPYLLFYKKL

B1: MBP-tagged ATAD5 (1–603) (domain or fragment, human, UniProt Q96QE3 1-603, looked up)
chain: MVGVLAMAAAAAPPPVKDCEIEPCKKRKKDDDTSTCKTITKYLSPLGKTRDRVFAPPKPSNILDYFRKTSPTNEKTQLGKECKIKSPESVPVDSNKDCTTPLEMFSNVEFKKKRKRVNLSHQLNNIKTENEAPIEISSDDSKEDYSLNNDFVESSTSVLRYKKQVEVLAENIQDTKSQPNTMTSLQNSKKVNPKQGTTKNDFKKLRKRKCRDVVDLSESLPLAEELNLLKKDGKDTKQMENTTSHANSRDNVTEAAQLNDSIITVSYEEFLKSHKENKVEEIPDSTMSICVPSETVDEIVKSGYISESENSEISQQVRFKTVTVLAQVHPIPPKKTGKIPRIFLKQKQFEMENSLSDPENEQTVQKRKSNVVIQEEELELAVLEAGSSEAVKPKCTLEERQQFMKAFRQPASDALKNGVKKSSDKQKDLNEKCLYEVGRDDNSKKIMENSGIQMVSKNGNLQLHTDKGSFLKEKNKKLKKKNKKTLDTGAIPGKNREGNTQKKETTFFLKEKQYQNRMSLRQRKTEFFKSSTLFNNESLVYEDIANDDLLKVSSLCNNNKLSRKTSIPVKDIKLTQSKAESEASLLNVSTPKSTRRSGRISST
[1]
  binding result: binds
[2]
  binding result: binds
